# Test results as given in IntAct's records for PubMed 22632968.
# B1: SUN domain-containing protein 2 (Homo sapiens), Q9UH99 (parent)
# chain: MSRRSQRLTRYSQGDDDGSSSSGGSSVAGSQSTLFKDSPLRTLKRKSSNMKRLSPAPQLGPSSDAHTSYYSESLVHESWFPPRSSLEELHGDANWGEDLRVRRRRGTGGSESSRASGLVGRKATEDFLGSSSGYSSEDDYVGYSDVDQQSSSSRLRSAVSRAGSLLWMVATSPGRLFRLLYWWAGTTWYRLTTAASLLDVFVLTRRFSSLKTFLWFLLPLLLLTCLTYGAWYFYPYGLQTFHPALVSWWAAKDSRRPDEGWEARDSSPHFQAEQRVMSRVHSLERRLEALAAEFSSNWQKEAMRLERLELRQGAPGQGGGGGLSHEDTLALLEGLVSRREAALKEDFRRETAARIQEELSALRAEHQQDSEDLFKKIVRASQESEARIQQLKSEWQSMTQESFQESSVKELRRLEDQLAGLQQELAALALKQSSVAEEVGLLPQQIQAVRDDVESQFPAWISQFLARGGGGRVGLLQREEMQAQLRELESKILTHVAEMQGKSAREAAASLSLTLQKEGVIGVTEEQVHHIVKQALQRYSEDRIGLADYALESGGASVISTRCSETYETKTALLSLFGIPLWYHSQSPRVILQPDVHPGNCWAFQGPQGFAVVRLSARIRPTAVTLEHVPKALSPNSTISSAPKDFAIFGFDEDLQQEGTLLGKFTYDQDGEPIQTFHFQAPTMATYQVVELRILTNWGHPEYTCIYRFRVHGEPAH
# Variants of: B1
# Conditions: with syne2_human SYNE2, Q8WXH0
row,effect of a mutation on the interaction,Variant
1,decreasing interaction strength,D542N
2,decreasing interaction strength,L536D

# Variants of: B1
# Conditions: with syne2_human SYNE2, Q8WXH0
# Remark: another data set of the same source
row,effect of a mutation on the interaction,Variant
1,disrupting interaction strength,H628A
2,disrupting interaction strength,S641E
